{"source": "paper PMC3311221", "about": "(Nature cell biology, 2011)", "molecular_target": "the molecule itself", "test": "SEC + other: glycerol gradient sedimentation", "data": [{"protein": "polyhistidine-tagged full length TFG-1 (natural protein, C. elegans, UniProt Q9U1W1 1-486, looked up) MVHSNGAITSTILKARHADVVRKTSLHHANDLTLIDLVLNVQRLLALPSDANFVLKYKDEEGDLVTLAEDSDLLLALHTSGATLDVTVVVDSRAREAVHDVQKQVEQIKLDVGKLLGALSALDVAQIAEQSNTSVANLSAPKQSHHDNIVFQKSFEAAPPSPVPSEKAELPATIQPSVHEQFNHRPAHVEEEIPLENHYAPPPHQQIPDDLNTSFSSQPPPPIEQFGAIPPPNATIPSFPTSNAASPPVQEFAPPPPQQQQQQFQAPPPPMASHSSISSTPVQQQGFAPPQQFGGPPPSGPPSEYGGYAPPQQQQQQFGAPPPQGAPQQGFGAPPQGPPQGGPPQGSFGAPPPQQFHAPSPQSFGGPPPPVSSAPGNFAPPPQSGPPGAFAPPPSAFGAPQGPGGPGGYGPPPPGGPGAPGSYGPPQGGPGGFGPPPPGGPGAYGPPPTGFPPVGAPPPGAAGAPGGNPFARGPSATGYRQSPYQQ", "values": [{"measurement": "stoichiometry N", "result": 6}]}, {"protein": "polyhistidine-tagged TFG-1 amino-terminus (amino acids 1-195) (domain or fragment, C. elegans, UniProt Q9U1W1 1-195, looked up) MVHSNGAITSTILKARHADVVRKTSLHHANDLTLIDLVLNVQRLLALPSDANFVLKYKDEEGDLVTLAEDSDLLLALHTSGATLDVTVVVDSRAREAVHDVQKQVEQIKLDVGKLLGALSALDVAQIAEQSNTSVANLSAPKQSHHDNIVFQKSFEAAPPSPVPSEKAELPATIQPSVHEQFNHRPAHVEEEIPL", "values": [{"measurement": "stoichiometry N", "result": 8}]}]}
